{
  "source": "patent US20090191187A1",
  "about": "(published 2009)",
  "binders": {"B1": {"name": "DEI5/8 (antibody, human IgG4, kappa, V domains shown)", "VH": "QLQLQESGPGLVKPSQTLSLTCTVSGLSLTSNSITWIRQPPGKGPEWMGMIWSNGDTDYSTSLKSRLTISKDTSKSQVVLTMTNMDPVDTATYYCARYNYYFDYWGQGTLVTVSS", "VL": "DIVLTQSPATLSLSPGERATLSCKASQNVDNRGVSYVHWYQQKPGQAPKLLIYKGSNLAFGVPSRFSGSGSGTDFTLTISSLQPEDFATYFCQQSKGHPDTFGAGTKLELKR", "notes": "also called combination of HURDIVHv5 and HURDIVKv8"}},
  "key": {"[1]": {"target": "T1, human interleukin-1 receptor on cells (MRC-5 human embryonic lung fibroblasts; human blood cells) (human, UniProt P14778 18-569)", "T1 sequence (looked up)": "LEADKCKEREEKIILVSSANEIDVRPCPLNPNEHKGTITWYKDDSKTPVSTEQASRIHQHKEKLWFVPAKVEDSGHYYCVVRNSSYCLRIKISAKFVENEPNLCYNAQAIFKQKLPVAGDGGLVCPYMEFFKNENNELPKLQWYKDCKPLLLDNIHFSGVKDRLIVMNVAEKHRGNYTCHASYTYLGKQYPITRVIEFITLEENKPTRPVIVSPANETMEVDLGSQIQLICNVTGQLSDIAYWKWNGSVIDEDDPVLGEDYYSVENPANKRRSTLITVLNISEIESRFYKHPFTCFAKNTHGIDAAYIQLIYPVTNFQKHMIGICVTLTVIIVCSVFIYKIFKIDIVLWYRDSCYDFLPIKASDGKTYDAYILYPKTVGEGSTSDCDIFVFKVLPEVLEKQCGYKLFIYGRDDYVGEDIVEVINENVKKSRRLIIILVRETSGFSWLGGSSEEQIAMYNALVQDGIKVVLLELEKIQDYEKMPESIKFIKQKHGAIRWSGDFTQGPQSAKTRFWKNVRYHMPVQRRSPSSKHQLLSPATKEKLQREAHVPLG", "experiment": "cell-based or functional assay"}, "[2]": {"target": "T2, recombinant soluble human type 1 IL-1 receptor (extracellular domain, glycosylated) (human, UniProt P14778 21-333, N-glycosylated (from SF9 insect cells); biotinylated in the ELISA of Examples 2 and 4c)", "T2 construct": "also called hIL-1R; rshIL-1R", "T2 sequence": "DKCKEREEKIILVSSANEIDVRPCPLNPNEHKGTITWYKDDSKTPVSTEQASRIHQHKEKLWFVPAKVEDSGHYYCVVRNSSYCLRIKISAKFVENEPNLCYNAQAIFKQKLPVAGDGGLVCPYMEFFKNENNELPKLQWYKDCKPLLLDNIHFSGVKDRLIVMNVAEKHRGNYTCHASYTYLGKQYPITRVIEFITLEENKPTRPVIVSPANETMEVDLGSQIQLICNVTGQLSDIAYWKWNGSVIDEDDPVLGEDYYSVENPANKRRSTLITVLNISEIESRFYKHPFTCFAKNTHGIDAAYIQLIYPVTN", "experiment": "ELISA on biotinylated human IL-1R on streptavidin plates", "description": "The relative immunactivity of the antibodies as compared to 2D8 antibody was determined by ELISA. A soluble biotinylated human IL-1R was coated at room temperature for one hour to 96-well-plates (precoated with streptavidin). After blocking with BSA the antibody was diluted and added to the wells and incubated at room temperature for two hours. The plates were washed three times and incubated with horse-radish-peroxidase (POD)-conjugated rabbit-anti-rat-IgG at room temperature for one hour. After further washing the amount of bound antibody was determined by addition of TM-Blue® ([…]) and measurement of the absorbance at 370 nm."}, "[3]": {"target": "T2, recombinant soluble human type 1 IL-1 …", "experiment": "SPR competition: IL-1R (10 nM) preincubated with DEI5/8, injected over immobilized 2D8 (competitor); first assay: immobilized 2D8", "description": "The protein-protein interaction of anti-IL-1R antibodies with IL-1R is analyzed by surface plasmon resonance using a Biacore 3000 System. Association rates are determined by an injection of two minutes duration; dissociation rates are measured by a washing step of three minutes duration. Negative control data are subtracted from original curves for correction of system intrinsic baseline drift and for noise signal reduction. Two assay formats with the antibody and IL-1R immobilized to the chip surface are used for this study.\na) Anti-IL-1R antibody 2D8 is covalently immobilized on the chip surface (CM5) by amine coupling. IL-1R is injected in a concentration of 10 nM under mass transfer conditions in order to determine the maximum signal which serves as a reference in the inhibition studies. Inhibition of IL-1R (10 nM) binding is measured by preincubation (in HBS—P buffer for at least 20 min at room temperature) of IL-1R with increasing concentrations (0.78-100 nM) of IL-1R antagonist, IL-1beta or DEI5/8. Subsequently, the samples are injected into the flow cells and interaction with immobilized 2D8 antibody is determined."}},
  "data": [
    {"binder": "B1", "values": [
      {"measurement": "Bioassay (IC50 in relation to 2D8), 1st experiment", "setting": "[1]", "value": "1.7 relative to 2D8"},
      {"measurement": "Bioassay (IC50 in relation to 2D8), 2nd experiment", "setting": "[1]", "value": "2.2 relative to 2D8"},
      {"measurement": "Bioassay (IC50 in relation to 2D8), Mean", "setting": "[1]", "value": "2 relative to 2D8"},
      {"measurement": "ELISA (absorbance at 370 nm in relation to 2D8), 1st experiment", "setting": "[2]", "value": "1.4 relative to 2D8"},
      {"measurement": "ELISA (absorbance at 370 nm in relation to 2D8), 2nd experiment", "setting": "[2]", "value": "1.9 relative to 2D8"},
      {"measurement": "ELISA (absorbance at 370 nm in relation to 2D8), mean", "setting": "[2]", "value": "1.7 relative to 2D8"},
      {"measurement": "IC50", "setting": "[3]", "value": 2, "unit": "nM"}
    ]}
  ]
}
